Laboratory results from IntAct's records for PubMed 21242966.

B1: F-box only protein 4 (Homo sapiens), Q9UKT5 (parent)
chain: MAGSEPRSGTNSPPPPFSDWGRLEAAILSGWKTFWQSVSKERVARTTSREEVDEAASTLTRLPIDVQLYILSFLSPHDLCQLGSTNHYWNETVRDPILWRYFLLRDLPSWSSVDWKSLPDLEILKKPISEVTDGAFFDYMAVYRMCCPYTRRASKSSRPMYGAVTSFLHSLIIQNEPRFAMFGPGLEELNTSLVLSLMSSEELCPTAGLPQRQIDGIGSGVNFQLNNQHKFNILILYSTTRKERDRAREEHTSAVNKMFSRHNEGDDQQGSRYSVIPQIQKVCEVVDGFIYVANAEAHKRHEWQDEFSHIMAMTDPAFGSSGRPLLVLSCISQGDVKRMPCFYLAHELHLNLLNHPWLVQDTEAETLTGFLNGIEWILEEVESKRAR
B2: 14-3-3 protein epsilon (Rattus norvegicus (Rat)), P62260 (parent)
chain: MDDREDLVYQAKLAEQAERYDEMVESMKKVAGMDVELTVEERNLLSVAYKNVIGARRASWRIISSIEQKEENKGGEDKLKMIREYRQMVETELKLICCDILDVLDKHLIPAANTGESKVFYYKMKGDYHRYLAEFATGNDRKEAAENSLVAYKAASDIAMTELPPTHPIRLGLALNFSVFYYEILNSPDRACRLAKAAFDDAIAELDTLSEESYKDSTLIMQLLRDNLTLWTSDMQGDGEEQNKEALQDVEDENQ

How the values were obtained:
[1] = variants of: B1; settings: with 1433e_mouse Ywhae
[2] = variants of: B1; settings: with 1433e_human YWHAE
1433e_rat Ywhae, P62260 = variants of: B1; settings: with 1433e_rat Ywhae, P62260
[3] = variants of: B1; settings: with 1433e_human YWHAE; remark: listed apart in the source
fbx4_human FBXO4, Q9UKT5 = variants of: B2; settings: with fbx4_human FBXO4, Q9UKT5

Row | Variant | effect of a mutation on the interaction [1] | effect of a mutation on the interaction [2] | effect of a mutation on the interaction (1433e_rat Ywhae, P62260) | effect of a mutation on the interaction [3] | effect of a mutation on the interaction (fbx4_human FBXO4, Q9UKT5)
1 | MAGSEPRSGTNAPPPPFSDWGRLEAAILSGWKTFWQSVSKERVARTTSREEVDEAASTLTRLPIDVQLYILSFLSPHDLCQLGSTNHYWNETVRDPILWRYFLLRDLPSWSSVDWKSLPDLEILKKPISEVTDGAFFDYMAVYRMCCPYTRRASKSSRPMYGAVTSFLHSLIIQNEPRFAMFGPGLEELNTSLVLSLMSSEELCPTAGLPQRQIDGIGSGVNFQLNNQHKFNILILYSTTRKERDRAREEHTSAVNKMFSRHNEGDDQQGSRYSVIPQIQKVCEVVDGFIYVANAEAHKRHEWQDEFSHIMAMTDPAFGSSGRPLLVLSCISQGDVKRMPCFYLAHELHLNLLNHPWLVQDTEAETLTGFLNGIEWILEEVESKRAR [S12A] | disrupting interaction | disrupting interaction | decreasing interaction | – | –
2 | MAGSEPRRGTNSPPPPFSDWGRLEAAILSGWKTFWQSVSKERVARTTSREEVDEAASTLTRLPIDVQLYILSFLSPHDLCQLGSTNHYWNETVRDPILWRYFLLRDLPSWSSVDWKSLPDLEILKKPISEVTDGAFFDYMAVYRMCCPYTRRASKSSRPMYGAVTSFLHSLIIQNEPRFAMFGPGLEELNTSLVLSLMSSEELCPTAGLPQRQIDGIGSGVNFQLNNQHKFNILILYSTTRKERDRAREEHTSAVNKMFSRHNEGDDQQGSRYSVIPQIQKVCEVVDGFIYVANAEAHKRHEWQDEFSHIMAMTDPAFGSSGRPLLVLSCISQGDVKRMPCFYLAHELHLNLLNHPWLVQDTEAETLTGFLNGIEWILEEVESKRAR [S8R] | disrupting interaction | disrupting interaction | decreasing interaction | decreasing interaction | –
3 | MDDREDLVYQAKLAEQAERYDEMVESMKKVAGMDVELTVEERNLLSVAYENVIGARRASWRIISSIEQKEENKGGEDKLKMIREYRQMVETELKLICCDILDVLDKHLIPAANTGESKVFYYKMKGDYHRYLAEFATGNDRKEAAENSLVAYKAASDIAMTELPPTHPIRLGLALNFSVFYYEILNSPDRACRLAKAAFDDAIAELDTLSEESYKDSTLIMQLLRDNLTLWTSDMQGDGEEQNKEALQDVEDENQ [K50E] | – | – | – | – | disrupting interaction
